Measured values published in article PMC12751054, “Investigating the conformational landscape of human histidine-rich glycoprotein using amide HDX-MS” (Biochemical Journal, 2025).

B1: Histidine-rich glycoprotein (HRG), native (fully glycosylated), purified from human pooled plasma (natural protein, UniProt P04196 19-525, looked up)
chain: VSPTDCSAVEPEAEKALDLINKRRRDGYLFQLLRIADAHLDRVENTTVYYLVLDVQESDCSVLSRKYWNDCEPPDSRRPSEIVIGQCKVIATRHSHESQDLRVIDFNCTTSSVSSALANTKDSPVLIDFFEDTERYRKQANKALEKYKEENDDFASFRVDRIERVARVRGGEGTGYFVDFSVRNCPRHHFPRHPNVFGFCRADLFYDVEALDLESPKNLVINCEVFDPQEHENINGVPPHLGHPFHWGGHERSSTTKPPFKPHGSRDHHHPHKPHEHGPPPPPDERDHSHGPPLPQGPPPLLPMSCSSCQHATFGTNGAQRHSHNNNSSDLHPHKHHSHEQHPHGHHPHAHHPHEHDTHRQHPHGHHPHGHHPHGHHPHGHHPHGHHPHCHDFQDYGPCDPPPHNQGHCCHGHGPPPGHLRRRGPGKGPRPFHCRQIGSVYRLPPLRKGEVLPLPEANFPSFPLPHHKHPLKPDNQPFPQSVSESCPGKFKSGFPQVSMFFTHTFPK
modifications: N-linked glycans at Asn63, Asn125, Asn202 and Asn344; O-linked glycans at Thr273 and Thr274
notes: Histidine-rich glycoprotein, human, UniProt P04196; printed residue numbers run to 525; Pooled plasma; also called native HRG; plasma-derived human HRG

Tests used:
[1] = target: Histidine-rich glycoprotein (HRG), enzymatically deglycosylated, purified from human pooled plasma (human) (UniProt P04196); experiment: mass photometry; HRG at 200 nM in 50 mM Tris-HCl, 140 mM NaCl, 2 mM EDTA, pH 7.4; TwoMP (Refeyn); monomer and dimer
[2] = target: Histidine-rich glycoprotein (HRG), enzymatically deglycosylated, purified from human pooled plasma (human) (UniProt P04196); experiment: mass photometry; HRG at 50 nM in 50 mM Tris-HCl, 140 mM NaCl, 2 mM EDTA, pH 7.4; TwoMP (Refeyn); monomer and dimer
[3] = target: the molecule itself; experiment: as above

Molecule | stoichiometry N [1] | stoichiometry N [2] | stoichiometry N [3]
Histidine-rich glycoprotein (HRG), enzymatically deglycosylated, purified from human pooled plasma (from UniProt P04196 19-525) (natural protein) | 2 | 2 | –
B1 | – | – | 2
